B1: syntaxin-3b cytoplasmic domain (residues 1–264) with C-terminal Avi-tag, wild type (domain or fragment, mouse, UniProt Q64704-2 1-264, looked up)
chain: MKDRLEQLKAKQLTQDDDTDEVEIAIDNTAFMDEFFSEIEETRLNIDKISEHVEEAKKLYSIILSAPIPEPKTKDDLEQLTTEIKKRANNVRNKLKSMEKHIEEDEVRSSADLRIRKSQHSVLSRKFVEVMTKYNEAQVDFRERSKGRIQRQLEITGKKTTDEELEEMLESGNPAIFTSGIIDSQISKQALSEIEGRHKDIVRLESSIKELHDMFMDIAMLVENQGAMIDRIENNMDQSVGFVERAVADTKKAVKYQSEARRKK
modifications: Alexa 488 (NHS ester) at the N-terminal primary amino group in the anisotropy assays; biotin (NHS-biotin) at the N-terminal primary amino group in the pull-downs
notes: syntaxin-3b (splice isoform 3b of syntaxin-3), cytoplasmic domain, residues 1-264; Gene synthesized and inserted into pJ414 (ATUM); The two native cysteines lie in the transmembrane region, which the Avi-tag replaces; also called SX-3b; WT syntaxin-3b; source: E. coli BL21 (DE3*), purified (Ni-NTA, TEV cleavage, HiTrap Q); not shown: His6, N-terminal, cleaved

Legend:
[1] = molecular target: syntaxin-1a cytoplasmic domain (residues 1–265) with C-terminal Avi-tag (UniProt P32851); experiment: pull-down; syntaxins biotinylated at the N-terminal amino group on neutravidin agarose beads; about 300 μg Munc18-1 incubated 1 h, washed, then 500 μg SNAP-25A 1 h at room temperature, washed with TBS; SDS-PAGE, Coomassie, Munc18-1 and SNAP-25 bands normalised to the syntaxin bands (ImageJ)
[2] = molecular target: syntaxin-1a cytoplasmic domain (residues 1–265) with C-terminal Avi-tag (UniProt P32851); experiment: fluorescence polarisation; ensemble fluorescence anisotropy of syntaxins with Munc18 (Supplemental Fig. 3); estimated Kd; conditions of this titration not told
[3] = molecular target: syntaxin-3b (residues 1–264)-Avi, T14E, double-cysteine construct labelled with FRET dyes (mouse) (UniProt Q64704); experiment: FRET or BRET; single-molecule FRET within syntaxin-3b (donor and acceptor on two cysteines), tethered by C-terminal biotin to streptavidin on a PEG surface; 10 μM SNAP-25 and synaptobrevin-2 (1-96) in solution; low FRET (open) read as SNARE complex
[4] = molecular target: syntaxin-3b (residues 1–264)-Avi, wild type, double-cysteine construct labelled with FRET dyes (mouse) (UniProt Q64704); experiment: as above
[5] = molecular target: syntaxin-1a cytoplasmic domain (residues 1–265) with C-terminal Avi-tag (UniProt P32851); experiment: fluorescence polarisation; bulk fluorescence anisotropy; Alexa 488-labelled syntaxin about 0.5 μM in TBS (20 mM Tris pH 7.5, 150 mM NaCl, 0.5 mM TCEP), unlabelled SNAP-25A 0-0.900 μM, about 15 min at room temperature, 96 well plate; curves fit with Hill equations to estimate Kd
Munc18-1 = molecular target: T1, Munc18-1 (UniProt P61765 1-594); experiment: fluorescence polarisation; ensemble fluorescence anisotropy of syntaxins with Munc18 (Supplemental Fig. 3); estimated Kd; conditions of this titration not told; conditions: both partners purified
T1 construct: The methods describe no plasmid for Munc18-1; only its tag cleavage and gel filtration are told; source: E. coli BL21 (DE3*), purified (Ni-NTA, TEV cleavage, Superdex 200 gel filtration)

Molecule | fold increase of SNARE complex formation against WT syntaxin-3b [3] [fold] | percent of molecules that formed ternary SNARE complex [4] [%] | also measured
Munc18-1 (from UniProt P61765 1-594) (natural protein) | – | – | percent decrease of binary t-SNARE complex formation with SNAP-25 in the presence of Munc18-1 [1]: 70%; Kd [2]: 6.6 nM
SNAP-25, full length (from UniProt P60881-2 1-206) (natural protein) | 2 | 50 | Kd [5]: 161 nM
synaptobrevin-2 cytoplasmic domain (residues 1–96) (from UniProt P63045 1-96) (domain or fragment) | 2 | 50 | –
B1 | – | – | Kd (Munc18-1): 9.6 nM

Reference: paper PMC9166750 (Scientific Reports, 2022)
